Test results published in US20120122239A1.

What was measured:
[1] = molecular target: human pro B-type natriuretic peptide (HyTest, Turku, Finland; Catalog No. 8PRO8) (human); assay: sandwich CMIA, capture 15C4, 86.6 pM, against human NT-proBNP
[2] = molecular target: glycosylated human proBNP (HyTest, Turku, Finland; Catalog No. 8GOB2) (human); assay: as above
[3] = molecular target: human pro B-type natriuretic peptide (HyTest, Turku, Finland; Catalog No. 8PRO8) (human); assay: sandwich CMIA, capture 15F11, analyte 86.6 pM
[4] = molecular target: human NT-pro B-type natriuretic peptide (HyTest, Turku, Finland; Catalog No. 8NT1) (human); assay: sandwich CMIA, capture 15F11, analyte 86.6 pM
Sequence of human NT-pro B-type natriuretic peptide (HyTest, Turku, Finland; Catalog No. 8NT1) (human) (chain, as listed by the source): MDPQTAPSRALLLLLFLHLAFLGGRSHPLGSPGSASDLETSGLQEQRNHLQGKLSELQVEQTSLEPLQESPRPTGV

[5] = molecular target: glycosylated human proBNP (HyTest, Turku, Finland; Catalog No. 8GOB2) (human); assay: sandwich CMIA, capture 15F11, analyte 86.6 pM
[6] = molecular target: human pro B-type natriuretic peptide (HyTest, Turku, Finland; Catalog No. 8PRO8) (human); assay: sandwich CMIA, capture 15F11, analyte 43.3 pM
[7] = molecular target: human NT-pro B-type natriuretic peptide (HyTest, Turku, Finland; Catalog No. 8NT1) (human); assay: sandwich CMIA, capture 15F11, analyte 43.3 pM
[8] = molecular target: glycosylated human proBNP (HyTest, Turku, Finland; Catalog No. 8GOB2) (human); assay: sandwich CMIA, capture 15F11, analyte 43.3 pM
[9] = molecular target: human pro B-type natriuretic peptide (HyTest, Turku, Finland; Catalog No. 8PRO8) (human); assay: sandwich CMIA, capture 15F11, 577.4 pM, against human NT-proBNP
[10] = molecular target: glycosylated human proBNP (HyTest, Turku, Finland; Catalog No. 8GOB2) (human); assay: as above
[11] = molecular target: human pro B-type natriuretic peptide (HyTest, Turku, Finland; Catalog No. 8PRO8) (human); assay: sandwich CMIA, capture 15F11, analyte 577.4 pM
[12] = molecular target: human NT-pro B-type natriuretic peptide (HyTest, Turku, Finland; Catalog No. 8NT1) (human); assay: sandwich CMIA, capture 15F11, analyte 577.4 pM
[13] = molecular target: glycosylated human proBNP (HyTest, Turku, Finland; Catalog No. 8GOB2) (human); assay: sandwich CMIA, capture 15F11, analyte 577.4 pM
[14] = molecular target: human pro B-type natriuretic peptide (HyTest, Turku, Finland; Catalog No. 8PRO8) (human); assay: sandwich CMIA, capture 15C4, 288.7 pM, against human NT-proBNP
[15] = molecular target: glycosylated human proBNP (HyTest, Turku, Finland; Catalog No. 8GOB2) (human); assay: as above
[16] = molecular target: human pro B-type natriuretic peptide (HyTest, Turku, Finland; Catalog No. 8PRO8) (human); assay: sandwich CMIA, capture 15C4, 577.4 pM, against human NT-proBNP
[17] = molecular target: glycosylated human proBNP (HyTest, Turku, Finland; Catalog No. 8GOB2) (human); assay: as above
[18] = molecular target: human pro B-type natriuretic peptide (HyTest, Turku, Finland; Catalog No. 8PRO8) (human); assay: sandwich CMIA, capture 15C4, 43.3 pM, against human NT-proBNP
[19] = molecular target: glycosylated human proBNP (HyTest, Turku, Finland; Catalog No. 8GOB2) (human); assay: as above
[20] = molecular target: human pro B-type natriuretic peptide (HyTest, Turku, Finland; Catalog No. 8PRO8) (human); assay: sandwich CMIA, capture 15C4, analyte 577.4 pM
[21] = molecular target: human NT-pro B-type natriuretic peptide (HyTest, Turku, Finland; Catalog No. 8NT1) (human); assay: sandwich CMIA, capture 15C4, analyte 577.4 pM
[22] = molecular target: glycosylated human proBNP (HyTest, Turku, Finland; Catalog No. 8GOB2) (human); assay: sandwich CMIA, capture 15C4, analyte 577.4 pM
[23] = molecular target: human pro B-type natriuretic peptide (HyTest, Turku, Finland; Catalog No. 8PRO8) (human); assay: sandwich CMIA, capture 15C4, analyte 43.3 pM
[24] = molecular target: human NT-pro B-type natriuretic peptide (HyTest, Turku, Finland; Catalog No. 8NT1) (human); assay: sandwich CMIA, capture 15C4, analyte 43.3 pM
[25] = molecular target: glycosylated human proBNP (HyTest, Turku, Finland; Catalog No. 8GOB2) (human); assay: sandwich CMIA, capture 15C4, analyte 43.3 pM
[26] = molecular target: human pro B-type natriuretic peptide (HyTest, Turku, Finland; Catalog No. 8PRO8) (human); assay: sandwich CMIA, capture 15F11, analyte 0.0 pM (blank)
[27] = molecular target: human NT-pro B-type natriuretic peptide (HyTest, Turku, Finland; Catalog No. 8NT1) (human); assay: as above
[28] = molecular target: glycosylated human proBNP (HyTest, Turku, Finland; Catalog No. 8GOB2) (human); assay: as above
[29] = molecular target: human pro B-type natriuretic peptide (HyTest, Turku, Finland; Catalog No. 8PRO8) (human); assay: sandwich CMIA, capture 15F11, analyte 288.7 pM
[30] = molecular target: human NT-pro B-type natriuretic peptide (HyTest, Turku, Finland; Catalog No. 8NT1) (human); assay: sandwich CMIA, capture 15F11, analyte 288.7 pM
[31] = molecular target: glycosylated human proBNP (HyTest, Turku, Finland; Catalog No. 8GOB2) (human); assay: sandwich CMIA, capture 15F11, analyte 288.7 pM
[32] = molecular target: human pro B-type natriuretic peptide (HyTest, Turku, Finland; Catalog No. 8PRO8) (human); assay: sandwich CMIA, capture 15C4, analyte 0.0 pM (blank)
[33] = molecular target: human NT-pro B-type natriuretic peptide (HyTest, Turku, Finland; Catalog No. 8NT1) (human); assay: as above
[34] = molecular target: glycosylated human proBNP (HyTest, Turku, Finland; Catalog No. 8GOB2) (human); assay: as above

Sequence of glycosylated human proBNP (HyTest, Turku, Finland; Catalog No. 8GOB2) (human) (chain, as listed by the source): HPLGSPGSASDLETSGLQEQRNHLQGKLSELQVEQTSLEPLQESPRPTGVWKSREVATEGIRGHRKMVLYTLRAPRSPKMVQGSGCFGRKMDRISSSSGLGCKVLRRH

- % Cross-reactivity [1]: 16%
- % Cross-reactivity [2]: 0.7%
- Analyte rlus [3]: 2210 rlus
- Analyte rlus [4]: 3540 rlus
- Analyte rlus [5]: 4470 rlus
- Analyte rlus [6]: 1570 rlus
- Analyte rlus [7]: 1990 rlus
- Analyte rlus [8]: 2320 rlus
- % Cross-reactivity [9]: 31.8%
- % Cross-reactivity [10]: 115%
- Analyte rlus [11]: 11400 rlus
- Analyte rlus [12]: 33900 rlus
- Analyte rlus [13]: 38700 rlus
- % Cross-reactivity [14]: 13.7%
- % Cross-reactivity [15]: 0.4%
- % Cross-reactivity [16]: 14%
- % Cross-reactivity [17]: 0.3%
- % Cross-reactivity [18]: 16%
- % Cross-reactivity [19]: -0.2%
- Analyte rlus [20]: 25900 rlus
- Analyte rlus [21]: 180000 rlus
- Analyte rlus [22]: 1420 rlus
- Analyte rlus [23]: 2170 rlus
- Analyte rlus [24]: 8870 rlus
- Analyte rlus [25]: 877 rlus
- Analyte rlus [26]: 912 rlus
- Analyte rlus [27]: 912 rlus
- Analyte rlus [28]: 912 rlus
- Analyte rlus [29]: 6140 rlus
- Analyte rlus [30]: 14600 rlus
- Analyte rlus [31]: 16400 rlus
- Analyte rlus [32]: 892 rlus
- Analyte rlus [33]: 892 rlus
- Analyte rlus [34]: 892 rlus
Substance: anti-human NT-proBNP/anti-human proBNP labeled monoclonal antibody 29D12 (HyTest, Turku, Finland)
